Measurements from patent US20240092907A1 (Five Prime, published 2024).
Where a chain is given by its changes, count along the chain named.

T1: recombinant hVISTA ECD multimer (monobiotinylated hVISTA ECD on PE-streptavidin dextramers) (human, UniProt Q9H7M9 33-194, limits assumed, monobiotinylated)
T1 construct: Loaded at a 28:1 molar ratio onto PE-conjugated streptavidin dextramers; also called VISTA multimer; hVISTA-loaded dextramers
T1 sequence (looked up): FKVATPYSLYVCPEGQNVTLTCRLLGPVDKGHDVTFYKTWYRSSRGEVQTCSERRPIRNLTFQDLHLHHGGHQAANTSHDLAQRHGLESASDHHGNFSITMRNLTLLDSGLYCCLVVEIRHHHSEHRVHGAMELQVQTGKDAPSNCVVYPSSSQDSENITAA

B1: P1-061029.IgG1.3 (antibody)
heavy: EVQLVESGGGLVQPGKSLRLSCAASGFTLDDYAMHWVRQAPGKGLEWVSGINWNSANIGYADSVKGRFTISRDNAKNSLYLQMNSLRTEDTALYYCAKVPGYSGGWIDAFDVWGQGTMVTVSSASTKGPSVFPLAPSSKSTSGGTAALGCLVKDYFPEPVTVSWNSGALTSGVHTFPAVLQSSGLYSLSSVVTVPSSSLGTQTYICNVNHKPSNTKVDKRVEPKSCDKTHTCPPCPAPEAEGAPSVFLFPPKPKDTLMISRTPEVTCVVVDVSHEDPEVKFNWYVDGVEVHNAKTKPREEQYNSTYRVVSVLTVLHQDWLNGKEYKCKVSNKALPAPIEKTISKAKGQPREPQVYTLPPSREEMTKNQVSLTCLVKGFYPSDIAVEWESNGQPENNYKTTPPVLDSDGSFFLYSKLTVDKSRWQQGNVFSCSVMHEALHNHYTQKSLSLSPG
light: not shown
notes: IgG1.3; also called parent; hIgG1.3f
B2: P1-068761.IgG1.3 (antibody)
heavy: B1 heavy with D30E, Y32E, A56E, N57E, G104H, F110E
light: not shown
notes: IgG1.3; also called hIgG1.3f
B3: P1-068767.IgG1.3 (antibody, V domains shown)
VH: EVQLVESGGGLVQPGKSLRLSCAASGFTLEDYAMHWVRQAPGKGLEWVSGIDWNSENIGYADSVKGRFTISRDNAKNSLYLQMNSLRTEDTALYYCAKVPGYSGGWIDAEDDWGQGTMVTVSS
VL: not shown
notes: IgG1.3; also called hIgG1.3f; printed once as P1-068768

How the values were obtained:
[1] = target: avidin (ThermoFisher Scientific catalog #21128) (UniProt P02701 25-152); assay: SPR 25C, Ab on Protein A, pH 6.0 and 7.4
Protocol: (§1) Protein A (ThermoFisher Scientific catalog #21181) was diluted to 20 ug/ml in 10 mM sodium acetate pH 4.5 and immobilized onto flow cells of a CM3 biosensor following the manufacturer's amine coupling protocol (GE Healthcare), targeting 800 RU immobilization density of Protein A per flow cell. SPR experiments were conducted at 25° C. using PBST (137 mM sodium chloride, 2.7 mM potassium chloride, 10 mM phosphate buffer, 0.05% Tween 20) running buffer at pH 7.4 and 6.0. Antibodies (formatted as IgG1.3 antibodies) were diluted to 50 nM in PBST pH 7.4, and were captured across active biosensor flow cells at 5 ul/min for 60 seconds. […] Two 15 second injections of 10 mM glycine pH 1.5 were used to regenerate the Protein A capture surface between assay cycles. Reference flow cell and 0 nM blank-subtracted sensorgrams were inspected using Biacore® T200 Evaluation Software v.2.0.

[2] = target: BSA (Calbiochem catalog #126593) (UniProt P02769 25-607); assay: SPR 25C, Ab on Protein A, pH 6.0 and 7.4
Protocol: as §1

[3] = target: T1, recombinant hVISTA ECD multimer …; assay: flow cytometry, blocking of VISTA multimer binding to activated human CD4+ T cells, pH 6.0
Protocol: As a control, activated CD4+ T cells were stained with PE-conjugated streptavidin dextramers that were not loaded with hVISTA. The stained cells were washed with HBSS+ MES and acquired on a flow cytometer. Data were analyzed using FlowJo™ software (BD Biosciences). […] Left, from darker gray to lighter, the filled histograms depict binding at pH 7.0, 6.5, 6.4, 6.3, 6.1, and 6.0. Some histograms are labeled with their corresponding pH. Non-VISTA control multimer binding at pH 6.0 is shown as the unfilled histogram. Right, graphed PE mean fluorescence intensities (MFI) of CD4+ T cells stained with hVISTA-loaded dextramers (blue circles) or with non-loaded dextramers (triangles) at various pH.
This blocking assay was performed as described in Example 4.

avidin (ThermoFisher Scientific catalog #21128), sequence (P02701 25-152 limits assumed): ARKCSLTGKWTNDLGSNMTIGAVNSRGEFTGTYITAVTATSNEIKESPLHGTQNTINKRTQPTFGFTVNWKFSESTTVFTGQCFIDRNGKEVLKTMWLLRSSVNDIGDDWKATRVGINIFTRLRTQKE
BSA (Calbiochem catalog #126593), sequence (P02769 25-607 limits assumed): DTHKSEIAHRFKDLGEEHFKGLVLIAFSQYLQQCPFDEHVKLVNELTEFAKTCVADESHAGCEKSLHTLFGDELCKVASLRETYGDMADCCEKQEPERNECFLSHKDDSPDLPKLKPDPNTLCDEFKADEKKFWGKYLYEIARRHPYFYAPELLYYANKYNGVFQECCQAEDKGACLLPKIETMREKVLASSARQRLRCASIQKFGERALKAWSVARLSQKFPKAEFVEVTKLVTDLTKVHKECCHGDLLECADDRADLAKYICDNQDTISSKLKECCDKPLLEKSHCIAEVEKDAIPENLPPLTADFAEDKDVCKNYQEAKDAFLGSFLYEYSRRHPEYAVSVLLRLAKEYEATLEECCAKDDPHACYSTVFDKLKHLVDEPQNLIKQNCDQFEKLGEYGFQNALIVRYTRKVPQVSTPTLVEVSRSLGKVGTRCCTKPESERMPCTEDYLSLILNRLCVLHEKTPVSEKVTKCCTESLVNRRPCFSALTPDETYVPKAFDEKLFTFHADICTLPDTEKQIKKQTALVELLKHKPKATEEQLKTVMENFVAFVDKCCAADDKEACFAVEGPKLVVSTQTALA

| Binder | binding result [1] | binding result [2] | IC50 (read off the curve) [3] |
| --- | --- | --- | --- |
| B1 | no binding (tested: 100-10 nM; binding defined as >10 RU) | no binding (tested: 100-10 nM; binding defined as >10 RU) | ~0.04 µg/mL |
| B2 | no binding (tested: 100-10 nM; binding defined as >10 RU) | no binding (tested: 100-10 nM; binding defined as >10 RU) |  |
| B3 | no binding (tested: 100-10 nM; binding defined as >10 RU) | no binding (tested: 100-10 nM; binding defined as >10 RU) |  |
